Test results reported in PMC9701394, “Modified exosomal SIRPα variants alleviate white matter injury after intracerebral hemorrhage via microglia/macrophages” (Biomaterials Research, 2022).

Biological target: T1, biotinylated CD47 (UniProt Q08722 19-141, biotin (by BirA ligase, on the Avi tag))
T1 construct: CD47, IgSF domain; the SPR methods say only 'biotinylated CD47'. 'Purified as described above' would imply a His tag and a cleaved GST; also called CD47 IgSF domain
Assay: SPR; biotinylated CD47 (Rmax ~150 RU) captured on Biacore SA sensor chip at 25 °C; serial dilutions of SIRPα in HBS-P buffer; regeneration with 2 mol/L MgCl2; Langmuir binding model, Biacore T200
Conditions: both partners purified

T1 sequence (Q08722 19-141): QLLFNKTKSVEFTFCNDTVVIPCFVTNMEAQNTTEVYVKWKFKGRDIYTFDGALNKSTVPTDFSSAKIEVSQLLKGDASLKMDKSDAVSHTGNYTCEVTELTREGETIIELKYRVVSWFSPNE

B1: wild-type SIRPα (SIRPα WT), soluble monomer (domain or fragment, human, UniProt P78324 31-148, looked up)
chain: EEELQVIQPDKSVLVAAGETATLRCTATSLIPVGPIQWFRGAGPGRELIYNQKEGHFPRVTTVSDLTKRNNMDFSIRIGNITPADAGTYYCVKFRKGSPDDVEFKSGAGTELSVRAKP
notes: signal regulatory protein α (SIRPα), human, N-terminal V-set Ig domain; also called wild-type human SIRPα; SIRPα WT monomer; source: E. coli BL-21(DE3), purified (Ni-NTA; GST removed with HRV 3C protease); not shown: GST, N-terminal, cleaved
- Kd: 365 nM
- dissociation half-life (t1/2): 2.4 s
